Tests used:
[1] = target: the molecule itself; assay: dynamic light scattering (DLS); FAM118B24–334 WT at 10 µM in PBS pH 7.4, 20 °C
[2] = target: the molecule itself; assay: SEC; analytical SEC, Superdex Increase 10/300 GL, 50 mM Tris pH 8, 200 mM NaCl, 0.5 mM TCEP; injection concentrations up to 20 µM (mutant mixture: 10 µM each); sizes are coarse estimates from globular standards
FAM118B24–334-F122R = target: T1, FAM118B24–334-F122R (human, UniProt Q9BPY3 24-334, F122R); assay: ITC; 25 °C, PBS; FAM118B24–334-L32R in the syringe at 500 µM titrated into FAM118B24–334-F122R in the cell at 50 µM; details: both partners purified
T1 construct: also called head-surface mutant; not shown: His6, C-terminal, kept

B1: human FAM118B residues 24-334, C-terminally His-tagged, wild type (domain or fragment, UniProt Q9BPY3 24-334, looked up)
chain: PTKKPRKLLPSLKTKKPRELVLVIGTGISAAVAPQVPALKSWKGLIQALLDAAIDFDLLEDEESKKFQKCLHEDKNLVHVAHDLIQKLSPRTSNVRSTFFKDCLYEVFDDLESKMEDSGKQLLQSVLHLMENGALVLTTNFDNLLELYAADQGKQLESLDLTDEKKVLEWAQEKRKLSVLHIHGVYTNPSGIVLHPAGYQNVLRNTEVMREIQKLYENKSFLFLGCGWTVDDTTFQALFLEAVKHKSDLEHFMLVRRGDVDEFKKLRENMLDKGIKVISYGDDYADLPEYFKRLTCEISTRGTSAGMVREG
notes: not shown: His6, C-terminal, kept
stoichiometry N [1]: < 10 subunits | stoichiometry N [2]: > 8 protomers

B2: FAM118B24–334-L32R (domain or fragment, human, UniProt Q9BPY3 24-334, looked up)
chain: PTKKPRKLRPSLKTKKPRELVLVIGTGISAAVAPQVPALKSWKGLIQALLDAAIDFDLLEDEESKKFQKCLHEDKNLVHVAHDLIQKLSPRTSNVRSTFFKDCLYEVFDDLESKMEDSGKQLLQSVLHLMENGALVLTTNFDNLLELYAADQGKQLESLDLTDEKKVLEWAQEKRKLSVLHIHGVYTNPSGIVLHPAGYQNVLRNTEVMREIQKLYENKSFLFLGCGWTVDDTTFQALFLEAVKHKSDLEHFMLVRRGDVDEFKKLRENMLDKGIKVISYGDDYADLPEYFKRLTCEISTRGTSAGMVREG
notes: also called tail-surface mutant; not shown: His6, C-terminal, kept
stoichiometry N (FAM118B24–334-F122R): ~1

Source: paper PMC12700824 (Nature Structural & Molecular Biology, 2025)
